Columns and labels:
[1] = target: T1, Sfc1 186-283 (winged helix, lacks WHI) (Schizosaccharomyces pombe, UniProt O14229 186-283); test: filter binding; conditions: Buffer D: 20 mM Tris-HCl pH 7.5, 200 mM KCl, 2 mM MgCl2, 10 mM DTT, 25 C (EMSA and nitrocellulose filter binding)
T1 sequence: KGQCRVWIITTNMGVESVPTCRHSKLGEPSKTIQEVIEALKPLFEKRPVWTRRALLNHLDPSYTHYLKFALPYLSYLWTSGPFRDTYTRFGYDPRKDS

[2] = target: T2, Sfc7 (S. pombe TFIIIC τA subunit), full length (Schizosaccharomyces pombe, UniProt A6X980 1-120); test: ion-exchange chromatography; fragments from limited proteolysis of the purified Sfc1/Sfc7 heterodimer, separated by ion-exchange chromatography; conditions: both partners purified
T2 construct: Sfc7, Schizosaccharomyces pombe, full length (Mr = 13.3 kDa); cloned into pCDF-MCN; PDB 4BJJ holds residues 1-101; also called orthologue of S. cerevisiae τ55 (Tfc7) and human TFIIIC35; source: E. coli BL21 (DE3) RIPL, co-expressed with Sfc1, purified (Ni-NTA, TEV, second Ni-NTA, Mono Q, Superdex S200)
T2 sequence (looked up): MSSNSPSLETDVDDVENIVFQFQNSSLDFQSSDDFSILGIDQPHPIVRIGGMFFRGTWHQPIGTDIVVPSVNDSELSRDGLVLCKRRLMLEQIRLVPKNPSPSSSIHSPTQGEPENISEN

[3] = target: T3, Sfc1-DBD (C-terminal DNA-binding domain of Sfc1, residues 186-396), recombinant (Schizosaccharomyces pombe, UniProt O14229 186-396); test: ITC; 25°C, VP-ITC; 50 mM HEPES pH 7.5, 150 mM NaCl, 2 mM β-mercaptoethanol; 10 µl injections of 200 µM peptide into 2 ml of 10 µM protein; data not shown; conditions: both partners purified
T3 construct: Sfc1, Schizosaccharomyces pombe, residues 186-396 (winged-helix domain 186-283 and WHI domain 284-396); The crystal structure (4BJI) used selenomethionine-substituted protein; Purification details are in the Supplemental Methods; source: E. coli, purified (Ni-NTA, TEV, ion exchange, no gel filtration); not shown: His-tag, N-terminal, cleaved
T3 sequence (looked up): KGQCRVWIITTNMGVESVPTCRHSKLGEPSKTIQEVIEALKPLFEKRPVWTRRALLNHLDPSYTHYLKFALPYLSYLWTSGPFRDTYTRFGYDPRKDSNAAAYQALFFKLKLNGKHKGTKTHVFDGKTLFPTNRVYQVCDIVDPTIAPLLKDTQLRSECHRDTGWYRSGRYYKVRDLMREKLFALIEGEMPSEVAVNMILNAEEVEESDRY

[4] = target: T4, Sfc1 full length;Sfc7 full length (Schizosaccharomyces …, UniProt O14229;A6X980 1-456;1-120, |); test: filter binding; Buffer D: 20 mM Tris-HCl pH 7.5, 200 mM KCl, 2 mM MgCl2, 10 mM DTT, 25 C (EMSA and nitrocellulose filter binding); conditions: protein: recombinant;recombinant; tags: N-terminal His-tag, TEV-cleaved;; copies: 1;1; label: 32P; blunt
T4 sequence 1: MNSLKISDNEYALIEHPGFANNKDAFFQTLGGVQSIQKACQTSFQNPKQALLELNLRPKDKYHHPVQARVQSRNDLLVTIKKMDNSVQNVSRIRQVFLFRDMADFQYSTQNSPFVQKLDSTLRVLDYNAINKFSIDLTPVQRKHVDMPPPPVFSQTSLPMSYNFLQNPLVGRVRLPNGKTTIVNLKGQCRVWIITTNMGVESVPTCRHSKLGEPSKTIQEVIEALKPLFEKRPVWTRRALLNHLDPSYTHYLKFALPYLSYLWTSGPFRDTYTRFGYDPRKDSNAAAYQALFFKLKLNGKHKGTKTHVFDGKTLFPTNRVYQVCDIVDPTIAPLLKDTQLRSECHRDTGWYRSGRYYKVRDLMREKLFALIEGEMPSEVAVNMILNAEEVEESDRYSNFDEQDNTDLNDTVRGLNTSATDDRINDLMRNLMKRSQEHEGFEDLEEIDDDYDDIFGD
T4 sequence 2: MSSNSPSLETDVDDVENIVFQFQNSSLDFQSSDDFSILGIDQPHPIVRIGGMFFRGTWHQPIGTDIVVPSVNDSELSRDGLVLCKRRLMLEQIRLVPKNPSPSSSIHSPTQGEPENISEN

Sfc1 111-456 = target: T5, Sfc1 111-456 (Schizosaccharomyces pombe, UniProt O14229 111-456); test: as above; conditions: protein: recombinant; tags: N-terminal His-tag, TEV-cleaved; label: 32P; blunt
T5 sequence: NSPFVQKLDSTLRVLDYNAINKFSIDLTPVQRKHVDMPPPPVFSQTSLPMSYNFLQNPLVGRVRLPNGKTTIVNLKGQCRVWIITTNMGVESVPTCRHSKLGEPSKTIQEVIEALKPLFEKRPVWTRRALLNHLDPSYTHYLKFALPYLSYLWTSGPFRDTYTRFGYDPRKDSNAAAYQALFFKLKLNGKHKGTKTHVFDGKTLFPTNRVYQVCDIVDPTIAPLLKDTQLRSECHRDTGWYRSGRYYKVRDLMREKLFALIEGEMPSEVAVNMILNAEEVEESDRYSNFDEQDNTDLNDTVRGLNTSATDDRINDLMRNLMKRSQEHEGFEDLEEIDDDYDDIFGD

[5] = target: T6, Sfc1 1-396;Sfc7 full length (Schizosaccharomyces …, UniProt O14229;A6X980 1-396;1-120, |); test: as above; conditions: protein: recombinant;recombinant; tags: N-terminal His-tag, TEV-cleaved;; copies: 1;1; label: 32P; blunt
T6 sequence 1: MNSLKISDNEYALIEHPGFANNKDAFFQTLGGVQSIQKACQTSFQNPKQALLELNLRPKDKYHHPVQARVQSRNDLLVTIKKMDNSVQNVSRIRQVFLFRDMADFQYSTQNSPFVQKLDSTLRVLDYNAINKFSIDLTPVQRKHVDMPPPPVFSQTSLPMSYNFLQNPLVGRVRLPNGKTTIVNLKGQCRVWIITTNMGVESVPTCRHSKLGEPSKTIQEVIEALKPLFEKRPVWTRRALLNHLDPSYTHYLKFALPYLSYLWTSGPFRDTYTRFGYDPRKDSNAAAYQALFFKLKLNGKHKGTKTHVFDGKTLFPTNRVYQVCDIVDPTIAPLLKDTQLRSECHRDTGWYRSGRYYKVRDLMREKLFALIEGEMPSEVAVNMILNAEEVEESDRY
T6 sequence 2: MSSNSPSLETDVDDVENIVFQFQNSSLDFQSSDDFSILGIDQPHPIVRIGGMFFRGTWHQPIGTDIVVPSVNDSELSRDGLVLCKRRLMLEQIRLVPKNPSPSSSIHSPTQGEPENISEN

Sfc1 186-456 = target: T7, Sfc1 186-456 (Schizosaccharomyces pombe, UniProt O14229 186-456); test: as above; conditions: protein: recombinant; tags: N-terminal His-tag, TEV-cleaved; label: 32P; blunt
T7 sequence: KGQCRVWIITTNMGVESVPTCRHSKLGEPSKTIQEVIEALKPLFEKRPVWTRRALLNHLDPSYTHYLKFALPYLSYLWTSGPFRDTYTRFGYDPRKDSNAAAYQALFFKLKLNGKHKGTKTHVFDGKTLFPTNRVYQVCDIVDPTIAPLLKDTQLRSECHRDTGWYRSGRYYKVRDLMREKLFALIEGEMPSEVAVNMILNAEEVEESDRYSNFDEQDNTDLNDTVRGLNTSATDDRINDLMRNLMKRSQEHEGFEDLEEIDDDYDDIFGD

[6] = target: T1, Sfc1 186-283 (winged helix, lacks WHI); test: as above; conditions: protein: recombinant; tags: N-terminal His-tag, TEV-cleaved; label: 32P; blunt
Sfc1-DBD K294A = target: T8, Sfc1-DBD K294A (Schizosaccharomyces pombe, UniProt O14229 186-396, K294A); test: as above; conditions: protein: recombinant; tags: N-terminal His-tag, TEV-cleaved; label: 32P; blunt
T8 sequence: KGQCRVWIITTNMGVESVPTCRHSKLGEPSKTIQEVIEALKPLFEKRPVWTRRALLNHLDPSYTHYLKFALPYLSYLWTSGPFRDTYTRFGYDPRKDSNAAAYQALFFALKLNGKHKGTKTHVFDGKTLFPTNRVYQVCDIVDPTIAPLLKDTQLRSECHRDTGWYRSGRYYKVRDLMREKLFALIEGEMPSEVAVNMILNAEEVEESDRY

Sfc1-DBD R269A = target: T9, Sfc1-DBD R269A (Schizosaccharomyces pombe, UniProt O14229 186-396, R269A); test: as above; conditions: protein: recombinant; tags: N-terminal His-tag, TEV-cleaved; label: 32P; blunt
T9 sequence: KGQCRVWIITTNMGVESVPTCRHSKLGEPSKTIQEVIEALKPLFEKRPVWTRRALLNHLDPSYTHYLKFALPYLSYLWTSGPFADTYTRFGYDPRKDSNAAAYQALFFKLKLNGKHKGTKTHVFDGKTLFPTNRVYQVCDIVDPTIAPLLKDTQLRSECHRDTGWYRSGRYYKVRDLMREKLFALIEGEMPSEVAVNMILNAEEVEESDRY

Sfc1-DBD R237A = target: T10, Sfc1-DBD R237A (Schizosaccharomyces pombe, UniProt O14229 186-396, R237A); test: as above; conditions: protein: recombinant; tags: N-terminal His-tag, TEV-cleaved; label: 32P; blunt
T10 sequence: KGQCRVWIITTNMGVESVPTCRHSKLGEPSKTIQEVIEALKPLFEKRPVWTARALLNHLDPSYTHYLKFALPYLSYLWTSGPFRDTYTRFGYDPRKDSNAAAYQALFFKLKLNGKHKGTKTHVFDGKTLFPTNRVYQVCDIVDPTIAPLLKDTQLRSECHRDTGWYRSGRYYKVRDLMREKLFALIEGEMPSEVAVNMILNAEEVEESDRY

Sfc1-DBD R269A/K294A = target: T11, Sfc1-DBD R269A/K294A (Schizosaccharomyces pombe, UniProt O14229 186-396, R269A;K294A); test: as above; conditions: protein: recombinant; tags: N-terminal His-tag, TEV-cleaved; label: 32P; blunt
T11 sequence: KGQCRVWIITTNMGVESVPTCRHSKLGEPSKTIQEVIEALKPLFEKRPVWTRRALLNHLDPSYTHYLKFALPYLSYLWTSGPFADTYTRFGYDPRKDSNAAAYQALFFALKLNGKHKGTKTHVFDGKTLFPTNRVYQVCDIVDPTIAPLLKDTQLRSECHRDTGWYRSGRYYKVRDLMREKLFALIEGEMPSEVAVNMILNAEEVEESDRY

Sfc1-DBD = target: T12, Sfc1-DBD (Schizosaccharomyces pombe, UniProt O14229 186-396); test: unspecified (data not shown); similar affinity to A-box; Buffer D: 20 mM Tris-HCl pH 7.5, 200 mM KCl, 2 mM MgCl2, 10 mM DTT, 25 C (EMSA and nitrocellulose filter binding); conditions: protein: recombinant; tags: N-terminal His-tag, TEV-cleaved; label: 32P; blunt
T12 sequence: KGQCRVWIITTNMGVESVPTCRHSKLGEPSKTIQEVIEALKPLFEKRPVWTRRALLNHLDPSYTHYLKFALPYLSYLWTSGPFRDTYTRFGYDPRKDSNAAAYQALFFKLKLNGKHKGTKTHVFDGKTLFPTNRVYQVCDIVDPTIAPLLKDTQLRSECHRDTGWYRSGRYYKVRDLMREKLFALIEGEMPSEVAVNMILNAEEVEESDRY

A-box non-coding ssDNA (nc-ss) showed a binding signal (fold lower affinity than Sfc1-DBD) [1] of 10.

B1: Sfc1-NT, smaller protease-resistant Sfc1 fragment (residues 1-107) (domain or fragment, Schizosaccharomyces pombe, UniProt O14229 1-107, looked up)
chain: MNSLKISDNEYALIEHPGFANNKDAFFQTLGGVQSIQKACQTSFQNPKQALLELNLRPKDKYHHPVQARVQSRNDLLVTIKKMDNSVQNVSRIRQVFLFRDMADFQY
notes: Sfc1, Schizosaccharomyces pombe, residues 1-107, assigned by electrospray mass spectrometry and peptide mass fingerprinting; also called smaller Sfc1 fragment; source: limited proteolysis of the purified Sfc1/Sfc7 heterodimer made in E. coli; not shown: His-tag, N-terminal, cleaved
B1: binds [2].

B2: Sfc1_(435-456) synthetic peptide (22mer acidic Sfc1 tail peptide) (peptide)
peptide: QEHEGFEDLEEIDDDYDDIFGD
notes: Sfc1, Schizosaccharomyces pombe, the 22 C-terminal residues (435-456), pI 3.5; The methods call it Sfc1_(434-456); also called Sfc1_(434-456) peptide (methods); acidic tail peptide; source: synthetic peptide
B2 showed a Kd [3] of 3 ± 0.8 µM.

B3: A-box dsDNA (25 bp) (dsDNA)
DNA 1: CGAAGTGGCCGAGTGGTCTATGGCG
DNA 2: CGCCATAGACCACTCGGCCACTTCG
B3: no binding [4]; no binding (Sfc1 111-456); binds [5]. The binding result (Sfc1 186-456) was “no binding”, the binding signal [6] was ~10 fold lower affinity than Sfc1-DBD and the binding signal (Sfc1-DBD K294A) was > 2 fold lower affinity than Sfc1-DBD. The binding signal (Sfc1-DBD R269A) was > 2 fold lower affinity than Sfc1-DBD, the binding signal (Sfc1-DBD R237A) was > 2 fold lower affinity than Sfc1-DBD and the binding signal (Sfc1-DBD R269A/K294A) was > 2 fold lower affinity than Sfc1-DBD.

B4: B-box dsDNA (25 bp) (dsDNA)
DNA 1: CGACCCGGGTTCGATTCCCGGCCAA
DNA 2: TTGGCCGGGAATCGAACCCGGGTCG
B4: binds (Sfc1-DBD).
